The test has as its target T1, SARS-CoV-2 spike protein receptor binding domain (RBD) (SARS-CoV-2, wild type (Wuhan-Hu-1 …, UniProt P0DTC2)).
T1 construct: also called SARS-CoV-2 RBD
The experiment in a line: SPR. Conditions: both partners purified.

Changes are numbered by the printed parent chain. Numbers in names are those of the source.

B1: romlusevimab (BRII-198) (antibody, V domains shown)
VH: QVQLVQSGSELKKPGASVKVSCKASGYTFTTYVMNWVRQAPGQGLEWMGWINTNTGNPTYAQGFTGRFVFSLDTSVSTASLQISSLKAEDTAVYYCSSEITTLGGMDVWGQGTTVTVSS
VL: SYVLTQPPSVSVAPGKTARITCGGNNIGSKSVHWYQQKPGQAPVLVIYYDSDRPSGIPERFSGSNSGNTATLTISGVEAGDEADYYCQVWDSISDHRVFGGGTKLTVL
As a reminder, the Kd is the concentration at which binding is half-saturated. With B1, binding was characterised by a dissociation constant (Kd) of 0.56 nM.

B2: P2B-1G5 (precursor of romlusevimab) (antibody, V domains shown)
VH: B1 VH with S98C
VL: B1 VL
As for B2, the binding result is “binds”.
